Results from the MegaScale stability set (Tsuboyama et al. 2023).

B1: EHEE_rd2_0196 (parent)
chain: TETRTFDSEEEAKKAQKEAEKQGRTVTITRRDDRWEVRFD
B2: 2M8U (parent)
chain: TKAQVIEAFKVFDRDGNGYVTVDYLRKVLNELGDMMPADEIEEMIYEADPQNSGYVQYETFVGMLFL

Variants of: B1
Test: folding stability dG (cDNA display proteolysis); higher = more stable
Details: PBS, room temperature

Folding stability dG [kcal/mol], by site and new letter:
R38: V 3.02 | W 2.17 | F 2.33 | I 3.05 | E 2.68 | S 3 | T 3.15 | Y 2.24 | P 0.679 | M 2.74 | D 2.18 | A 2.8 | N 2.73 | K 2.96 | H 3.04 | Q 2.85 | G 2.1 | L 2.69
W35: A 0.417 | K 0.058 | P 0.441 | R 0.21 | L 0.862 | H 0.529 | F 2.18 | N 0.396 | Q 0.348 | G 0.36 | D 0.578 | T 0.4 | V 0.758 | M 0.562 | S 0.473 | Y 2.08 | E 0.481 | I 1.2
V37: T 1.31 | F 1.02 | H 0.212 | G 1.09 | A 1.89 | P 0.552 | K 0.375 | N 0.539 | Q 0.384 | R -0.375 | I 2.65 | W -0.006 | C 1.8 | M 2.17 | S 0.483 | L 2.83 | E 0.37 | D 0.415 | Y 0.443
E36: N 1.15 | Q 1.95 | G 0.645 | H 2.08 | A 1.32 | T 1.74 | F 2.5 | D 2.06 | Y 2.57 | I 2.99 | S 1.19 | V 2.89 | K 0.851 | M 2.06 | W 1.94 | R 1.08 | L 2.46
F39: E 2.52 | R 1.35 | A 2.34 | T 2.48 | Y 3.15 | P 2.06 | C 2.14 | Q 2.02 | K 1.29 | I 3.35 | G 1.87 | M 2.96 | N 1.81 | W 2.94 | H 1.93 | S 2.46 | L 2.74 | D 2.51 | V 2.93
D40: R 2.42 | Q 2.92 | P 2.3 | M 3.01 | W 2.89 | H 2.98 | I 3.13 | T 3.15 | L 3.05 | K 2.3 | Y 2.8 | A 2.97 | S 3.13 | V 3.21 | N 2.88 | F 2.85 | G 2.95 | E 3.28

Variants of: B2
Test: as above
Details: PBS, room temperature

Folding stability dG [kcal/mol] of substitutions, site by site:
V5: K 1.82 | E 1.95 | N 2.04 | H 2.36 | P 1.77 | A 2.77 | G 1.89 | S 2.1 | L 3.95 | Q 2.09 | D 1.89 | I 3.81 | F 3.59 | M 3.85 | T 2.49 | C 3.17 | R 1.91 | W 4.09 | Y 4.08
E7: H 2.93 | M 3.13 | A 3.46 | K 3.1 | N 3.17 | S 2.76 | R 2.85 | F 2.86 | P 1.91 | C 3.41 | V 3.08 | G 2.87 | W 2.42 | Q 2.96 | T 2.53 | I 3.07 | D 3.41 | Y 2.7 | L 3.28
A8: L 3.56 | N 2.81 | M 3.76 | Q 3.3 | T 2.67 | I 3.5 | P 2.02 | E 2.59 | K 3.62 | D 2.49 | W 3.56 | F 3.23 | V 2.84 | H 3.02 | R 3.6 | Y 3.17 | G 2.64 | C 3.46 | S 3.11
F9: L 4.1 | I 4.09 | H 2.14 | V 3.27 | G 2.1 | S 2.13 | Q 2.08 | W 1.95 | M 3.82 | P 2.32 | N 2.22 | K 2.18 | E 1.96 | D 1.85 | A 2.63 | T 2.47 | R 1.98 | Y 2.1 | C 3.12
A3: L 3.21 | G 2.93 | S 3.46 | M 3.24 | R 3.23 | W 2.9 | E 3.69 | C 3.48 | I 3.27 | F 3 | K 3.31 | H 3.22 | P 2.67 | N 3.25 | D 3.28 | Y 2.81 | T 3.14 | Q 3.56 | V 3.2
T1: L 3.3 | Y 2.83 | P 2.6 | I 3.61 | Q 3.13 | K 3.48 | S 3.34 | H 3.16 | C 3.76 | D 2.96 | N 3.18 | E 2.94 | W 3.1 | R 3.33 | V 3.32 | A 3.13 | G 2.88 | F 2.91 | M 3.21
V11: W 3.05 | N 3.51 | T 3.35 | A 3.77 | C 3.39 | D 3.13 | I 3.38 | S 3.56 | Y 3.07 | Q 3.65 | E 3.52 | R 3.63 | L 3.44 | P 3.14 | M 3.24 | K 3.72 | H 3.32 | G 3.28 | F 3.01
Q4: K 3.38 | E 3.41 | D 3.28 | A 3.53 | S 3.47 | R 3.34 | P 2.35 | H 3.12 | N 3.09 | M 3.31 | W 3.08 | I 3.15 | Y 2.97 | V 3.02 | C 3.56 | G 2.99 | L 3.21 | T 3.04 | F 2.87
I6: E 2.81 | R 2.46 | Q 2.31 | M 3.42 | C 3.4 | S 2.25 | Y 2.56 | F 2.6 | W 2.18 | N 2.55 | L 3.66 | D 2.38 | P 1.65 | G 2.34 | K 2.38 | A 2.25 | V 2.86 | H 2.76 | T 2.72
K10: D 2.26 | I 3.32 | F 3.21 | A 3.13 | G 2.97 | L 3.25 | E 3.02 | V 3.17 | R 3.46 | H 2.88 | C 3.51 | S 2.86 | P 2.08 | Q 3.16 | W 3.01 | N 2.74 | T 2.77 | Y 2.79 | M 3.15
K2: P 3.2 | D 2.24 | A 3.47 | L 3.3 | R 3.02 | T 2.79 | M 3.65 | H 3.11 | E 3.07 | C 3.6 | I 3.46 | Y 3.24 | W 2.67 | G 2.52 | S 2.98 | V 3.4 | F 2.94 | N 2.56
F12: T 2.39 | P 1.89 | L 3.08 | A 3.36 | H 3.24 | D 2.69 | G 3.5 | K 2.54 | E 3.15 | I 3.04 | C 3.15 | N 3.06 | V 3.03 | S 2.68 | M 3.33 | R 2.48 | Q 3.12
